From the supplement of paper PMC5998384 come the findings set out here.

Data set [1] relates to HeLa Kyoto. In words: solubility change mitosis vs G1/S (difference of NP-40 vs SDS log2 ratios) (log2 ratio difference); higher = more soluble in mitosis.
Data set [2] relates to HeLa Kyoto. In words: melting temperature (median over replicates), in situ; higher = more thermally stable.
Data set [3] concerns HeLa Kyoto. In words: solubility in G1/S (NP-40 vs SDS abundance) (log2 ratio); higher = more soluble. The following applies: cell cycle stage: G1/S.
Data set [4] has as its system HeLa Kyoto. In words: thermal stability score vs G1/S (z-score of summed log2 fold changes over temperatures); higher = more thermally stable than in G1/S.
[5] abbreviates: cell cycle stage: early G1 (4.5 h after nocodazole release).
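Throughout, for melting temperature (median over replicates), in situ: HeLa Kyoto cells synchronized by double thymidine or nocodazole block, proteins quantified by TMT10plex mass spectrometry, three independent biological replicates.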
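Throughout, for solubility change mitosis vs G1/S (difference of NP-40 vs SDS log2 ratios): synchronized HeLa Kyoto cells (double thymidine block for G1/S, nocodazole release for mitosis), protein amounts in NP-40 versus SDS lysates quantified by mass spectrometry, three biological replicates.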
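Throughout, for solubility in G1/S (NP-40 vs SDS abundance): HeLa Kyoto cells arrested at G1/S by double thymidine block, proteins quantified by TMT10plex mass spectrometry in mild NP-40 versus SDS extracts, three biological replicates.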
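Throughout, for thermal stability score vs G1/S (z-score of summed log2 fold changes over temperatures): synchronized HeLa Kyoto cells, proteins quantified by TMT10plex mass spectrometry, three biological replicates, mitosis taken 0.5 h after nocodazole release, G1/S directly after double thymidine block.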

As for “MPSRKFADGEVVRGRWPGSSLYYEVEILSHDSTSQLYTVKYKDGTELELKENDIKPLTSFRQRKGGSTSSSPSRRRGSRSRSRSRSPGRPPKSARRSASASHQADIKEARREVEVKLTPLILKPFGNSISRYNGEPEHIERNDAPHKNTQEKFSLSQESSYIATQYSLRPRREEVKLKEIDSKEEKYVAKELAVRTFEVTPIRAKDLEFGGVPGVFLIMFGLPVFLFLLLLMCKQKDPSLLNFPPPLPALYELWETRVFGVYLLWFLIQVLFYLLPIGKVVEGTPLIDGRRLKYRLNGFYAFILTSAVIGTSLFQGVEFHYVYSHFLQFALAATVFCVVLSVYLYMRSLKAPRNDLSPASSGNAVYDFFIGRELNPRIGTFDLKYFCELRPGLIGWVVINLVMLLAEMKIQDRAVPSLAMILVNSFQLLYVVDALWNEEALLTTMDIIHDGFGFMLAFGDLVWVPFIYSFQAFYLVSHPNEVSWPMASLIIVLKLCGYVIFRGANSQKNAFRKNPSDPKLAHLKTIHTSTGKNLLVSGWWGFVRHPNYLGDLIMALAWSLPCGFNHILPYFYIIYFTMLLVHREARDEYHCKKKYGVAWEKYCQRVPYRIFPYIY [LBR]”, the “solubility change mitosis (log2)” value with HeLa Kyoto [1] was -0.0634. The values for the melting temperature with HeLa Kyoto [2] (cell cycle stage: G1/S) and in the data set on HeLa Kyoto [2] (cell cycle stage: mitosis) were 53.1 °C and 52.5 °C, respectively. Besides, the “solubility in G1/S (log2)” value in the data set on HeLa Kyoto [3] was -0.228. The results for the thermal stability score in the data set on HeLa Kyoto [4] (setting [5]) and in the data set with HeLa Kyoto [4] (cell cycle stage: mitosis) were -0.47 and -1.19, respectively.
For the sequence “MPTVEELYRNYGILADATEQVGQHKDAYQVILDGVKGGTKEKRLAAQFIPKFFKHFPELADSAINAQLDLCEDEDVSIRRQAIKELPQFATGENLPRVADILTQLLQTDDSAEFNLVNNALLSIFKMDAKGTLGGLFSQILQGEDIVRERAIKFLSTKLKTLPDEVLTKEVEELILTESKKVLEDVTGEEFVLFMKILSGLKSLQTVSGRQQLVELVAEQADLEQTFNPSDPDCVDRLLQCTRQAVPLFSKNVHSTRFVTYFCEQVLPNLGTLTTPVEGLDIQLEVLKLLAEMSSFCGDMEKLETNLRKLFDKLLEYMPLPPEEAENGENAGNEEPKLQFSYVECLLYSFHQLGRKLPDFLTAKLNAEKLKDFKIRLQYFARGLQVYIRQLRLALQGKTGEALKTEENKIKVVALKITNNINVLIKDLFHIPPSYKSTVTLSWKPVQKVEIGQKRASEDTTSGSPPKKSSAGPKRDARQIYNPPSGKYSSNLGNFNYEQRGAFRGSRGGRGWGTRGNRSRGRLY [API5]”, the “solubility change mitosis (log2)” value in the data set with HeLa Kyoto [1] worked out at 0.0442. Besides, the melting temperature in the data set with HeLa Kyoto [2] (cell cycle stage: G1/S) was determined as 53.7 °C; in the data set with HeLa Kyoto [2] (cell cycle stage: mitosis), 52.8 °C. The “solubility in G1/S (log2)” value in the data set on HeLa Kyoto [3] came to 0.323. For the same sequence, the thermal stability score was found to be 1.42 in the data set with HeLa Kyoto [4] (setting [5]) and 1.11 with HeLa Kyoto [4] (cell cycle stage: mitosis).
Turning to “MPVGGLLPLFSSPAGGVLGGGLGGGGGRKGSGPAALRLTEKFVLLLVFSAFITLCFGAIFFLPDSSKLLSGVLFHSSPALQPAADHKPGPGARAEDAAEGRARRREEGAPGDPEAALEDNLARIRENHERALREAKETLQKLPEEIQRDILLEKKKVAQDQLRDKAPFRGLPPVDFVPPIGVESREPADAAIREKRAKIKEMMKHAWNNYKGYAWGLNELKPISKGGHSSSLFGNIKGATIVDALDTLFIMEMKHEFEEAKSWVEENLDFNVNAEISVFEVNIRFVGGLLSAYYLSGEEIFRKKAVELGVKLLPAFHTPSGIPWALLNMKSGIGRNWPWASGGSSILAEFGTLHLEFMHLSHLSGNPIFAEKVMNIRTVLNKLEKPQGLYPNYLNPSSGQWGQHHVSVGGLGDSFYEYLLKAWLMSDKTDLEAKKMYFDAVQAIETHLIRKSSSGLTYIAEWKGGLLEHKMGHLTCFAGGMFALGADAAPEGMAQHYLELGAEIARTCHESYNRTFMKLGPEAFRFDGGVEAIATRQNEKYYILRPEVMETYMYMWRLTHDPKYRKWAWEAVEALENHCRVNGGYSGLRDVYLLHESYDDVQQSFFLAETLKYLYLIFSDDDLLPLEHWIFNSEAHLLPILPKDKKEVEIREE [MAN1A1]”, the “solubility change mitosis (log2)” value with HeLa Kyoto [1] was -0.0318. Moreover, the values for the melting temperature in the data set on HeLa Kyoto [2] (cell cycle stage: G1/S) and in the data set on HeLa Kyoto [2] (cell cycle stage: mitosis) were 55 °C and 54.7 °C, respectively. Further, in the data set on HeLa Kyoto [3], the “solubility in G1/S (log2)” value came to 0.133. Moreover, the figures for the thermal stability score in the data set on HeLa Kyoto [4] (setting [5]) and in the data set with HeLa Kyoto [4] (cell cycle stage: mitosis) were 1.56 and 0.0924, respectively.
“MPVRGDRGFPPRRELSGWLRAPGMEELIWEQYTVTLQKDSKRGFGIAVSGGRDNPHFENGETSIVISDVLPGGPADGLLQENDRVVMVNGTPMEDVLHSFAVQQLRKSGKVAAIVVKRPRKVQVAALQASPPLDQDDRAFEVMDEFDGRSFRSGYSERSRLNSHGGRSRSWEDSPERGRPHERARSRERDLSRDRSRGRSLERGLDQDHARTRDRSRGRSLERGLDHDFGPSRDRDRDRSRGRSIDQDYERAYHRAYDPDYERAYSPEYRRGARHDARSRGPRSRSREHPHSRSPSPEPRGRPGPIGVLLMKSRANEEYGLRLGSQIFVKEMTRTGLATKDGNLHEGDIILKINGTVTENMSLTDARKLIEKSRGKLQLVVLRDSQQTLINIPSLNDSDSEIEDISEIESNRSFSPEERRHQYSDYDYHSSSEKLKERPSSREDTPSRLSRMGATPTPFKSTGDIAGTVVPETNKEPRYQEDPPAPQPKAAPRTFLRPSPEDEAIYGPNTKMVRFKKGDSVGLRLAGGNDVGIFVAGIQEGTSAEQEGLQEGDQILKVNTQDFRGLVREDAVLYLLEIPKGEMVTILAQSRADVYRDILACGRGDSFFIRSHFECEKETPQSLAFTRGEVFRVVDTLYDGKLGNWLAVRIGNELEKGLIPNKSRAEQMASVQNAQRDNAGDRADFWRMRGQRSGVKKNLRKSREDLTAVVSVSTKFPAYERVLLREAGFKRPVVLFGPIADIAMEKLANELPDWFQTAKTEPKDAGSEKSTGVVRLNTVRQIIEQDKHALLDVTPKAVDLLNYTQWFPIVIFFNPDSRQGVKTMRQRLNPTSNKSSRKLFDQANKLKKTCAHLFTATINLNSANDSWFGSLKDTIQHQQGEAVWVSEGKMEGMDDDPEDRMSYLTAMGADYLSCDSRLISDFEDTDGEGGAYTDNELDEPAEEPLVSSITRSSEPVQHEESIRKPSPEPRAQMRRAASSDQLRDNSPPPAFKPEPPKAKTQNKEESYDFSKSYEYKSNPSAVAGNETPGASTKGYPPPVAAKPTFGRSILKPSTPIPPQEGEEVGESSEEQDNAPKSVLGKVKIFEKMDHKARLQRMQELQEAQNARIEIAQKHPDIYAVPIKTHKPDPGTPQHTSSRPPEPQKAPSRPYQDTRGSYGSDAEEEEYRQQLSEHSKRGYYGQSARYRDTEL [TJP2]”: the “solubility change mitosis (log2)” value in the data set with HeLa Kyoto [1] was found to be 0.000921. Further, the melting temperature came out at 48.1 °C in the data set on HeLa Kyoto [2] (cell cycle stage: G1/S) and 49.2 °C in the data set with HeLa Kyoto [2] (cell cycle stage: mitosis). The “solubility in G1/S (log2)” value in the data set with HeLa Kyoto [3] is -0.246. In addition, the thermal stability score in the data set with HeLa Kyoto [4] (setting [5]) stood at 1; in the data set on HeLa Kyoto [4] (cell cycle stage: mitosis), 2.91.
As for “MPYVDRQNRICGFLDIEENENSGKFLRRYFILDTREDSFVWYMDNPQNLPSGSSRVGAIKLTYISKVSDATKLRPKAEFCFVMNAGMRKYFLQANDQQDLVEWVNVLNKAIKITVPKQSDSQPNSDNLSRHGECGKKQVSYRTDIVGGVPIITPTQKEEVNECGESIDRNNLKRSQSHLPYFTPKPPQDSAVIKAGYCVKQGAVMKNWKRRYFQLDENTIGYFKSELEKEPLRVIPLKEVHKVQECKQSDIMMRDNLFEIVTTSRTFYVQADSPEEMHSWIKAVSGAIVAQRGPGRSASSEHPPGPSESKHAFRPTNAATATSHSTASRSNSLVSTFTMEKRGFYESLAKVKPGNFKVQTVSPREPASKVTEQALLRPQSKNGPQEKDCDLVDLDDASLPVSDV [PLEKHA1]”, the “solubility change mitosis (log2)” value in the data set with HeLa Kyoto [1] was -0.0272. Also, the melting temperature in the data set on HeLa Kyoto [2] (cell cycle stage: G1/S) was found to be 49.8 °C; with HeLa Kyoto [2] (cell cycle stage: mitosis), 49 °C. Moreover, in the data set on HeLa Kyoto [3], the “solubility in G1/S (log2)” value worked out at 0.0285. Also, the thermal stability score with HeLa Kyoto [4] (setting [5]) was 0.0968; in the data set on HeLa Kyoto [4] (cell cycle stage: mitosis), 0.182.
For the sequence “MQDPNADTEWNDILRKKGILPPKESLKELEEEAEEEQRILQQSVVKTYEDMTLEELEDHEDEFNEEDERAIEMYRRRRLAEWKATKLKNKFGEVLEISGKDYVQEVTKAGEGLWVILHLYKQGIPLCALINQHLSGLARKFPDVKFIKAISTTCIPNYPDRNLPTIFVYLEGDIKAQFIGPLVFGGMNLTRDELEWKLSESGAIMTDLEENPKKPIEDVLLSSVRRSVLMKRDSDSEGD [PDCL3]”, the “solubility change mitosis (log2)” value in the data set with HeLa Kyoto [1] is -0.135. For the same sequence, the melting temperature with HeLa Kyoto [2] (cell cycle stage: G1/S) and in the data set with HeLa Kyoto [2] (cell cycle stage: mitosis) was 54.2 °C in each case. Besides, the “solubility in G1/S (log2)” value in the data set with HeLa Kyoto [3] worked out at 0.617. For the same sequence, the thermal stability score was -0.23 in the data set with HeLa Kyoto [4] (setting [5]) and -0.106 in the data set with HeLa Kyoto [4] (cell cycle stage: mitosis).
On to “MQDTGSVVPLHWFGFGYAALVASGGIIGYVKAGSVPSLAAGLLFGSLAGLGAYQLSQDPRNVWVFLATSGTLAGIMGMRFYHSGKFMPAGLIAGASLLMVAKVGVSMFNRPH [TMEM14C]”, for which the “solubility change mitosis (log2)” value with HeLa Kyoto [1] stood at 0.206. For the same sequence, the melting temperature in the data set with HeLa Kyoto [2] (cell cycle stage: mitosis) worked out at 54.3 °C. In the data set with HeLa Kyoto [3], the “solubility in G1/S (log2)” value was 0.356. Also, the thermal stability score in the data set with HeLa Kyoto [4] (setting [5]) is -3.8e-18; in the data set on HeLa Kyoto [4] (cell cycle stage: mitosis), -4.49e-20.
For “MQGARAPRDQGRSPGRMSALGRSSVILLTYVLAATELTCLFMQFSIVPYLSRKLGLDSIAFGYLQTTFGVLQLLGGPVFGRFADQRGARAALTLSFLAALALYLLLAAASSPALPGVYLLFASRLPGALMHTLPAAQMVITDLSAPEERPAALGRLGLCFGVGVILGSLLGGTLVSAYGIQCPAILAALATLLGAVLSFTCIPASTKGAKTDAQAPLPGGPRASVFDLKAIASLLRLPDVPRIFLVKVASNCPTGLFMVMFSIISMDFFQLEAAQAGYLMSFFGLLQMVTQGLVIGQLSSHFSEEVLLRASVLVFIVVGLAMAWMSSVFHFCLLVPGLVFSLCTLNVVTDSMLIKAVSTSDTGTMLGLCASVQPLLRTLGPTVGGLLYRSFGVPVFGHVQVAINTLVLLVLWRKPMPQRKDKVR [SLC22A18]”, the “solubility change mitosis (log2)” value in the data set on HeLa Kyoto [1] was -0.181. Moreover, the melting temperature in the data set on HeLa Kyoto [2] (cell cycle stage: G1/S) came to 54.2 °C. Also, the “solubility in G1/S (log2)” value in the data set on HeLa Kyoto [3] was -0.019. For the same sequence, the thermal stability score with HeLa Kyoto [4] (setting [5]) is 0.106; with HeLa Kyoto [4] (cell cycle stage: mitosis), -0.446.
